Reference: the Human Domainome abundance scans (Beltran et al. 2025)
± gives the uncertainty stated by the source.

Test: abundance fitness (aPCA) (normalised: wild type 0, dead -1); higher = more abundant; growth selection in yeast, the domain comes from the species named
Conditions: Homo sapiens

Compared with “BAG family molecular chaperone regulator 3 I30E, O95817”, “BAG family molecular chaperone regulator 3 I30G, O95817” is lower in abundance fitness: -0.226 ± 0.079 for the first, -0.44 ± 0.087 for the second.

“BAG family molecular chaperone regulator 3 I30H, O95817” and “BAG family molecular chaperone regulator 3 I30K, O95817” are within error of each other in abundance fitness: -0.114 ± 0.074 for the first, -0.087 ± 0.2 for the second.

Compared with “BAG family molecular chaperone regulator 3 I30L, O95817”, “BAG family molecular chaperone regulator 3 I30N, O95817” is lower in abundance fitness: 0.249 ± 0.091 for the first, -0.166 ± 0.28 for the second.

First: BAG family molecular chaperone regulator 3 I30P, O95817
Second: BAG family molecular chaperone regulator 3 I30R, O95817
The abundance fitness of the first is lower: -0.661 ± 0.084 for the first, -0.133 ± 0.084 for the second.

“BAG family molecular chaperone regulator 3 I30S, O95817” and “BAG family molecular chaperone regulator 3 I30T, O95817” are within error of each other in abundance fitness: -0.191 ± 0.077 for the first, -0.32 ± 0.2 for the second.

“BAG family molecular chaperone regulator 3 I30V, O95817” and “BAG family molecular chaperone regulator 3 I30W, O95817” are within error of each other in abundance fitness: 0.207 ± 0.092 for the first, 0.13 ± 0.12 for the second.

“BAG family molecular chaperone regulator 3 K29A, O95817” and “BAG family molecular chaperone regulator 3 K29C, O95817” are within error of each other in abundance fitness: -0.37 ± 0.12 for the first, -0.369 ± 0.24 for the second.

“BAG family molecular chaperone regulator 3 K29E, O95817” and “BAG family molecular chaperone regulator 3 K29F, O95817” are within error of each other in abundance fitness: -0.791 ± 0.42 for the first, -0.719 ± 0.45 for the second.

“BAG family molecular chaperone regulator 3 K29G, O95817” and “BAG family molecular chaperone regulator 3 K29H, O95817” are within error of each other in abundance fitness: -0.531 ± 0.083 for the first, -0.686 ± 0.16 for the second.

“BAG family molecular chaperone regulator 3 K29I, O95817” and “BAG family molecular chaperone regulator 3 K29L, O95817” are within error of each other in abundance fitness: -0.758 ± 0.38 for the first, -0.376 ± 0.091 for the second.

“BAG family molecular chaperone regulator 3 K29M, O95817” and “BAG family molecular chaperone regulator 3 K29N, O95817” are within error of each other in abundance fitness: -0.23 ± 0.21 for the first, -0.75 ± 0.43 for the second.

“BAG family molecular chaperone regulator 3 K29P, O95817” and “BAG family molecular chaperone regulator 3 K29Q, O95817” are within error of each other in abundance fitness: -0.598 ± 0.26 for the first, -0.711 ± 0.28 for the second.

“BAG family molecular chaperone regulator 3 K29R, O95817” and “BAG family molecular chaperone regulator 3 K29S, O95817” are within error of each other in abundance fitness: -0.17 ± 0.066 for the first, -0.313 ± 0.11 for the second.

“BAG family molecular chaperone regulator 3 K29T, O95817” and “BAG family molecular chaperone regulator 3 K29V, O95817” are within error of each other in abundance fitness: -0.212 ± 0.16 for the first, -0.266 ± 0.11 for the second.

“BAG family molecular chaperone regulator 3 K29W, O95817” and “BAG family molecular chaperone regulator 3 L22A, O95817” are within error of each other in abundance fitness: -0.754 ± 0.29 for the first, -0.362 ± 0.17 for the second.

First: BAG family molecular chaperone regulator 3 L22C, O95817
Second: BAG family molecular chaperone regulator 3 L22D, O95817
The abundance fitness of the first is higher: 0.225 ± 0.16 for the first, -0.753 ± 0.42 for the second.

“BAG family molecular chaperone regulator 3 L22F, O95817” and “BAG family molecular chaperone regulator 3 L22G, O95817” are within error of each other in abundance fitness: -0.069 ± 0.18 for the first, -0.144 ± 0.13 for the second.

Going from “BAG family molecular chaperone regulator 3 L22H, O95817” to “BAG family molecular chaperone regulator 3 L22I, O95817”, the abundance fitness rises from -0.796 ± 0.37 to -0.271 ± 0.15.

Compared with “BAG family molecular chaperone regulator 3 L22M, O95817”, “BAG family molecular chaperone regulator 3 L22N, O95817” is lower in abundance fitness: 0.023 ± 0.17 for the first, -0.67 ± 0.34 for the second.

“BAG family molecular chaperone regulator 3 L22P, O95817” and “BAG family molecular chaperone regulator 3 L22Q, O95817” are within error of each other in abundance fitness: -0.477 ± 0.23 for the first, -0.226 ± 0.095 for the second.

First: BAG family molecular chaperone regulator 3 L22S, O95817
Second: BAG family molecular chaperone regulator 3 L22T, O95817
The abundance fitness of the first is lower: -0.574 ± 0.11 for the first, 0.047 ± 0.17 for the second.

Going from “BAG family molecular chaperone regulator 3 L22V, O95817” to “BAG family molecular chaperone regulator 3 L22W, O95817”, the abundance fitness falls from 0.078 ± 0.068 to -0.464 ± 0.083.

Compared with “BAG family molecular chaperone regulator 3 N16A, O95817”, “BAG family molecular chaperone regulator 3 N16C, O95817” is lower in abundance fitness: 0.423 ± 0.079 for the first, 0.113 ± 0.14 for the second.

Compared with “BAG family molecular chaperone regulator 3 N16D, O95817”, “BAG family molecular chaperone regulator 3 N16E, O95817” is higher in abundance fitness: 0.008 ± 0.07 for the first, 0.658 ± 0.11 for the second.

“BAG family molecular chaperone regulator 3 N16F, O95817” and “BAG family molecular chaperone regulator 3 N16H, O95817” are within error of each other in abundance fitness: -0.219 ± 0.24 for the first, 0.094 ± 0.13 for the second.

Going from “BAG family molecular chaperone regulator 3 N16I, O95817” to “BAG family molecular chaperone regulator 3 N16K, O95817”, the abundance fitness rises from 0.113 ± 0.19 to 1.04 ± 0.12.

“BAG family molecular chaperone regulator 3 N16L, O95817” and “BAG family molecular chaperone regulator 3 N16M, O95817” are within error of each other in abundance fitness: 0.33 ± 0.1 for the first, 0.276 ± 0.065 for the second.

Compared with “BAG family molecular chaperone regulator 3 N16P, O95817”, “BAG family molecular chaperone regulator 3 N16Q, O95817” is higher in abundance fitness: 0.153 ± 0.14 for the first, 0.465 ± 0.17 for the second.

Compared with “BAG family molecular chaperone regulator 3 N16R, O95817”, “BAG family molecular chaperone regulator 3 N16T, O95817” is higher in abundance fitness: 0.231 ± 0.065 for the first, 0.666 ± 0.11 for the second.

First: BAG family molecular chaperone regulator 3 N16V, O95817
Second: BAG family molecular chaperone regulator 3 N16Y, O95817
The abundance fitness of the first is higher: 0.368 ± 0.1 for the first, 0.117 ± 0.1 for the second.

“BAG family molecular chaperone regulator 3 N43A, O95817” and “BAG family molecular chaperone regulator 3 N43C, O95817” are within error of each other in abundance fitness: -0.331 ± 0.087 for the first, -0.681 ± 0.38 for the second.

“BAG family molecular chaperone regulator 3 N43D, O95817” and “BAG family molecular chaperone regulator 3 N43G, O95817” are within error of each other in abundance fitness: -0.622 ± 0.31 for the first, -0.531 ± 0.14 for the second.

Substance “BAG family molecular chaperone regulator 3 N43H, O95817” has an abundance fitness of -0.384 ± 0.38.
